Assay results from patent publication US20050147610A1 (AbbVie / Abbott, published 2005).
Numbering of substitutions follows the chain as printed. Where “and” joins values, the source holds several entries; their conditions need not be identical. Identical values can stand only once. Like-named read-outs stand apart in the source and are kept apart here.

How the values were obtained:
[1] = biological target: T1, NEM-huIL-18 (recombinant mature human IL-18 treated with N-ethyl maleiamide) (human, UniProt Q14116 37-193, cysteines protected with N-ethyl maleiamide (NEM)); experiment: cell-based or functional assay
[2] = biological target: T1, NEM-huIL-18 (recombinant mature human …); experiment: cell-based or functional assay; remark: listed apart in the source
[3] = biological target: T2, natural human IL-18 (endogenous, human whole blood) (human, UniProt Q14116 37-193); experiment: cell-based or functional assay
[4] = biological target: T1, NEM-huIL-18 (recombinant mature human …); experiment: Biacore, NEM-cys protected rhuIL-18
[5] = biological target: T3, 125I labeled rhu-IL-18 (human, UniProt Q14116 37-193, NEM-treated cysteines; 125I label on lysine residues); experiment: RBA: inhibition of 125I-rhu-IL-18 binding to IL-18Rαβ on KG-1 cells
[6] = biological target: recombinant mature human IL-18 (preparation not specified) (human, UniProt Q14116 37-193); experiment: cell-based or functional assay
[7] = biological target: T2, natural human IL-18 (endogenous, human …); experiment: cell-based or functional assay; remark: listed apart in the source
[8] = biological target: T3, 125I labeled rhu-IL-18; experiment: RBA: inhibition of 125I-rhu-IL-18 binding to IL-18Rαβ on KG-1 cells; remark: listed apart in the source

B1: 413 (antibody, V domains shown)
VH: ZTQLQESGPGLVKPSETLSLTCTVSGGSISSRVYYWGWIRQPPGKGLEWIGSIYYSGSTYYSPSLKSRVTISVDTSKNQFSLKLSSVTAADTAIYYCAREDSSAWVFEHWGQGTLVTVSS
VL: EIVLTQSPDTLSLSPGERATLSCRASQILSRNYLAWYQQKPGQAPRLLIYGISIRATGIPDRFSGSGSGADFTLTINRLEPEDFAVYYCQHYDNSLCSFGQGTKLEVKR
KG-1 Assays (IC50, M), NEM-rhuIL-18 [1]: 1e-09 M and 7e-10 M

B2: 351 (antibody, V domains shown)
VH: ZVQLVESGGGVVQPGRSLRLSCAASGFTFSHYGMHWVRQAPGKGLEWVAVISYDGRNKYYVDSVKGRFTISRDNSKNTLYLQMNSLRAEDTAVFYCAREKGGSGWPPFYYYYGMDVWGQGTTVTVSS
VL: DIVMTQTPLSLSVTPGQPASISCKSSQNLLYSDGETYLCWYLQKPGQPPQLLIYEVSNRFSGVPERFSGSGSGTDFTLKISRVEAEDVGIYYCMQNVQLPLTFGGGTRVEIKR
KG-1 Assays (IC50, M), NEM-rhuIL-18 [1]: 2e-10 M

B3: 435 (antibody, V domains shown)
VH: ZLQLQESGPGLVKPSETLSLTCTVSGGSIDSRIYYWGWIRQPPGKGLEWIGSIYYRGSTYYNPSLKSRVTISVDTPKNQFSLKLNSVTAADTAVYYCAREDSSAWVFDYWGQGTLATVSS
VL: EIVLTQSPGTLSLSPGERATLSCRASQSVRNNYLNWYQQKPGQAPRLLIYGAFSRATGIPDRFSGSGSGTDFTLTISSLEPEDFVVYYCQQYGNSIDSFGQGTKLEINR
KG-1 Assays (IC50, M), NEM-rhuIL-18 [1]: 8e-10 M and 7e-10 M and 4e-10 M

B4: 2.13.1 (antibody, V domains shown)
VH: ZVQLQESGPGLVTPSQTLSLTCTVSGGSISSGGHYWTWIRQHPGKGLEWIGYIYYSGSTYYNPSLKSRLTISVDTSKNQFSLKLSSVAAADTAVYYCARDRGGSGSYWDYWGQGTLVTVSS
VL: EIVLTQSPGTLSLSPGERATLSCRGSRSVSSGYLAWYQQKPGQAPRLLIYGVSIRATGIPDRFSGSGSGTDFTLTISRLEPEDFAVYYCQQYHGSPLTFGGGTKVEIKR
KG-1 Assays (IC50, M), NEM-rhuIL-18 [1]: 2e-10 M and 1e-10 M and 7e-11 M

B5: 2.13.1(E)wtg1 (antibody, V domains shown)
VH: B4 VH with Z1E
VL: B4 VL
KG-1 (IC50, nM) [2]: 0.12 nM | WBA (IC50, nM) [3]: 2 nM | Kd [4]: 200 pM | IC50 [5]: 200 pM

B6: 215 (antibody, V domains shown)
VH: ZVQLQESGPGLVKPSQTLSLTCTVSGGSINSGDYYWSWIRQHPGKGLEWIGHISYRGTTYYNPSLKSRVTISVDTSKNQFSLKLSSVTAADTAVYCCARDRGGGFFDLWGRGTLVTVSS
VL: B4 VL with G25A, V29L, V52A, G69A, H93N, G94Y, K104R, K108N
KG-1 Assays (IC50, M), NEM-rhuIL-18 [1]: 1e-10 M and 3e-10 M

B7: 2.5.1 (antibody, V domains shown)
VH: ZVQLVQSGTEVKKPGESLKISCKGSGYTVTSYWIGWVRQMPGKGLEWMGFIYPGDSETRYSPTFQGQVTISADKSFNTAFLQWSSLKASDTAMYYCARVGSGWYPYTFDIWGQGTMVTVSS
VL: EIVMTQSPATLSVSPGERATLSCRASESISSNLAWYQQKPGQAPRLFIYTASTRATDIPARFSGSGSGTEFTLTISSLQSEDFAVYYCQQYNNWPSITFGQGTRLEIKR
KG-1 Assays (IC50, M), NEM-rhuIL-18 [1]: 3e-10 M and 4e-10 M

B8: IL-18BP-Fc (Fc fusion, UniProt O95998 31-194, looked up, not shown: a dimerising Fc or GST)
chain: TPVSQTTTAATASVRSTKDPCPSQPPVFPAAKQCPALEVTWPEVEVPLNGTLSLSCVACSRFPNFSILYWLGNGSFIEHLPGRLWEGSTSRERGSTGTQLCKALVLEQLTPALHSTNFSCVLVDPEQVVQRHVVLAQLWAGLRATLPPTQEALPSSHSSPQQQG
KG-1, Neutralization Potency in vitro (IC50, nM) [6]: 0.03 nM | WBA, Neutralization Potency in vitro (IC50, nM) [7]: 5.7 nM | IC50 [8]: 1000 pM
